According to US10828372B2, “Compositions and methods for the inhibition of fibrosis” (WISCONSIN ALUMNI RESEARCH FOUNDATION, priority 2017, dated 2020):
Where no end group is shown, it is not given here.

What was measured:
[1] = biological target: T1, 70K N-terminal domain of FN (Homo sapiens, UniProt P02751); conditions: background statement; cited from earlier work
T1 construct: specifically to the 70K N-terminal domain of FN involved in fibrillogenesis

[2] = Fluorescence imaging (IVIS) of subcutaneous dose absorption; type: in vivo, mouse
Procedure: Preparation of Animal Experiment FUD and 10-40 kDa PEG-FUD Drug Dose: A 12.5 mg FUD equivalents per kg of mouse weight drug dose spiked with 1.5% Cy5 labeled drug was prepared by mixing an appropriate amount of unlabeled and labeled drug in a conical vial. The drug was then dialyzed ON into phosphate buffered saline (pH 7.4) using a 3000 MWCO dialysis membrane. The total volume of the dose was reduced to the appropriate value using a 3000 MWCO Amicon® Ultra-15 centrifugal unit. The final concentration of the drug was determined using a UV-vis spectrophotometer and the 646 nm extinction coefficient of Cy5, ε=271000 L·mol^−1·cm^−1.
10 week old mice weighing 20-23 g were placed under 2% isoflurane anesthesia and positioned on their abdomen inside of an IVIS Spectrum In Vivo Imaging System. A 100 uL dose containing 0.27 mg (12.5 mg/kg) of FUD or FUD equivalents of 10-40 kDa PEG-FUD that was spiked with 1.5% Cy5 labeled drug was delivered subcutaneously between the shoulder blades of the animals (n=3 per treatment group). The animals were imaged before the injection, immediately following injection, and at time points of 30 minutes and 1, 3, 6, 12, 24, 36, and 48 hours. The animals were sacrificed following the last time point and their organs were harvested for ex vivo fluorescence imaging and drug extraction and quantification. LivingImage® (PerkinElmer) software was used to analyze the views of each animal group. The autodraw feature of the software set to a 5% threshold was used to create unique regions of interest (ROI) on each animal at t=30 mins views that were consistently applied to each subsequent time point views to quantify drug levels present at the site of injection. Baseline autoflorescence values calculated from ROIs applied to “before injection” views were subtracted from the values of each time point's animals. The ROI values obtained from the t=30 mins views were used to calculate % dose remaining for each subsequent time point.

[3] = UUO kidney ECM fraction, s.c. approximately 12.5 mg/kg daily; extrapolated
Procedure: Unilateral Ureteral Obstruction model. Male C57BL/6 mice were purchased from Envigo (Madison, Wis.) and housed in the Wisconsin Institutes for Medical Research animal facilities at the University of Wisconsin-Madison with ad-libitum access to food and water. Animals were maintained in humidity and temperature-controlled rooms under 12 h light/dark cycles. All work was conducted under protocol M5421, reviewed and approved by the University of Wisconsin-Madison Institutional Animal Care and Use Committee. All efforts were made to minimize suffering. The Unilateral Ureteral Obstruction (UUO) model is a rodent surgical model representing a human equivalent of […]. Obstruction results in marked dilatation of the ureter together with reduced renal blood flow and glomerular filtration. […]
Tissue extraction and immunoblotting: Kidney tissues were fractionated as described in the art. […] Relative quantitation of specific blotted protein was performed by assessing band intensities using Image J and normalizing to bands obtained with rabbit anti-Histone 3 rabbit IgG (CellSignalTechnology, Danves, Mass., USA) or goat anti-GAPDH-HRP conjugated IgG (Genscript, Piscataway, N.J., USA), which were used as loading controls for ECM or lysate fractions, respectively.

T1 sequence (P02751 32-609 limits assumed): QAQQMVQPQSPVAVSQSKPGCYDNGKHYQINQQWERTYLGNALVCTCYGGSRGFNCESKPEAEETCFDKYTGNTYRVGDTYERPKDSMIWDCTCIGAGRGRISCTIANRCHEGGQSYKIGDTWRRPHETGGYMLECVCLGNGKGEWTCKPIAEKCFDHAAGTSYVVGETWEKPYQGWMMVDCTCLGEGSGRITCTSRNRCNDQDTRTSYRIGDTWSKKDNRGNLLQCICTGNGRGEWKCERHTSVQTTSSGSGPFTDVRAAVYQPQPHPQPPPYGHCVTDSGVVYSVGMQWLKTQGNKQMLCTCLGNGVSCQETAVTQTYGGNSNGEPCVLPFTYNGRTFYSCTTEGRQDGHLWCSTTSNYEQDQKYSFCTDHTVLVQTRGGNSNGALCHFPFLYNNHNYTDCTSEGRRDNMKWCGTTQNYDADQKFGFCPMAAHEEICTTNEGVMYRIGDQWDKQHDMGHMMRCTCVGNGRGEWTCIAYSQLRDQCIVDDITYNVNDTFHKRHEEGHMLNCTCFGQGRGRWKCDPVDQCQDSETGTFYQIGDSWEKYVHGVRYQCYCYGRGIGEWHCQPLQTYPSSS

Row | Substance | binding affinity [1] | % dose remaining at the site of injection after 24 hours ([2]; s.c. 12.5 mg/kg FUD equivalents, 24 hours) [%] | apparent half-life at the site of injection ([2]; s.c. 12.5 mg/kg, spiked with 1.5% Cy5 labeled drug, nude mice) [min] | PEG-FUD level in kidney [3] [ng per mg]
1 | FUD: 49 amino acid FUD peptide, SEQ ID NO: 1, recombinantly expressed, His-tag removed; inhibitor of fibronectin fibrillogenesis (KDQSPLAGESGETEYITEVYGNQQNPVDIDKKLPNETGFSGNMVETEDT; human) [reference compound] | nanomolar affinity | 0.3 | 35 | 
2 | PEG-FUD: PEGylated FUD prepared as in Example 1, PEG size not stated; approximately 27 kDa by mass spectrometry, likely the 20 kDa conjugate (KDQSPLAGESGETEYITEVYGNQQNPVDIDKKLPNETGFSGNMVETEDT; not fully specified (N-terminus); also: PEG size not given here) |  |  |  | ~50
